Source: patent US20100233758A1

Biological target: glycoprotein D of HSV-1 KOS/tk12 (wild type HSV-1 KOS carrying a lacZ reporter gene) (herpes simplex virus 1 (HSV-1 KOS))
Experiment: cell-based or functional assay

recombinant sHveA102 protein (receptor)
percentage of cells infected with the virus (X-gal staining): 70%
